In paper PMC4842972, “Identification of residues crucial for the interaction between human neuroglobin and the α-subunit of heterotrimeric Gi protein” (Scientific Reports, 2016):
Changes are numbered by the printed parent chain. Numbers in names are those of the source.

B1: GST-human ferric E151Q Ngb mutant (natural protein)
chain: MERPEPELIRQSWRAVSRSPLEHGTVLFARLFALEPDLLPLFQYNCRQFSSPEDCLSSPEFLDHIRKVMLVIDAAVTNVEDLSSLEEYLASLGRKHRAVGVKLSSFSTVGESLLYMLEKCLGPAFTPATRAAWSQLYGAVVQAMSRGWDGQ
notes: human neuroglobin (Ngb) with E151Q (the residue of bush baby Ngb at this position); in pGEX-4T-1; Ferric form; made by site-directed mutagenesis of GST-Ngb; also called GST-human Ngb mutant; source: E. coli BL21 (DE3), purified (glutathione-Sepharose 4B)
B2: GST-human ferric R97C Ngb mutant (natural protein)
chain: B1 chain with R97C, Q151E
notes: human neuroglobin (Ngb) with R97C (the residue of megabat Ngb at this position); in pGEX-4T-1; Ferric form; made by site-directed mutagenesis of GST-Ngb; also called GST-human Ngb mutant; source: E. coli BL21 (DE3), purified (glutathione-Sepharose 4B)
B3: GST-human ferric WT Ngb (neuroglobin) (natural protein)
chain: B1 chain with Q151E
notes: human neuroglobin (Ngb); human Ngb cDNA cloned into pGEX-4T-1; also called GST-human WT Ngb; GST-human Ngb; source: E. coli BL21 (DE3), purified (glutathione-Sepharose 4B)

Columns and labels:
Assay in all cases: pull-down; GST-ferric Ngb (or GST alone) immobilised on glutathione-Sepharose 4B beads, incubated with truncated Gαi1; 10 mM HEPES, 150 mM NaCl, 10 mM MgCl2, 10 uM GDP, 0.1% Tween20, pH 7.4; 1 h at 4 °C; Western blot with anti-Gαi1 monoclonal antibody
Conditions in all cases: both partners purified
[1] = target: T1, human WT truncated Gαi1 protein (residues 26-354), GDP-bound form (human, UniProt P63096 26-354)
T1 construct: human Gαi1 (α-subunit of heterotrimeric Gi protein), residues 26-354; lacks the N-terminal disordered region (25 amino acids); Cloned in pET151/D-TOPO with a TEV site after the His6-tag; also called WT Gαi1; not shown: His6, N-terminal, cleaved
T1 sequence (P63096 26-354): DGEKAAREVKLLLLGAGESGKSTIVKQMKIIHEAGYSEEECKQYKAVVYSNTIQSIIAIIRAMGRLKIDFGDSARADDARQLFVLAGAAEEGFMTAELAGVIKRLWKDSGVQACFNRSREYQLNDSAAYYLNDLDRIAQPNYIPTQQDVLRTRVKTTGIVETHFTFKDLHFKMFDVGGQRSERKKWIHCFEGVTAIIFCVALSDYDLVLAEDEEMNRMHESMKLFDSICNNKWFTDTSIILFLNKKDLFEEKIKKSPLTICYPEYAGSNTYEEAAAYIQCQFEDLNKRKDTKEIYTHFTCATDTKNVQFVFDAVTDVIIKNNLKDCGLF

[2] = target: T2, human truncated Gαi1 E238N, E239Q double mutant, GDP-bound form (human, UniProt P63096 26-354, E238N | E239Q)
T2 construct: human Gαi1, residues 26-354, with E238N and E239Q (the corresponding residues of human Gαs); site-directed mutant of the truncated Gαi1 construct; also called E238N, E239Q Gαi1 double mutant; not shown: His6, N-terminal, cleaved
T2 sequence (P63096 26-354 E238N/E239Q): as the sequence (P63096 26-354) above, with E213N, E214Q counted along it

[3] = target: T3, human truncated Gαi1 K180L single mutant, GDP-bound form (human, UniProt P63096 26-354, K180L)
T3 construct: human Gαi1, residues 26-354, with K180L (Leu is the corresponding residue of human Gαs); site-directed mutant of the truncated Gαi1 construct; also called K180L Gαi1; not shown: His6, N-terminal, cleaved
T3 sequence (P63096 26-354 K180L): as the sequence (P63096 26-354) above, with K155L counted along it

[4] = target: T4, human truncated Gαi1 R86A single mutant, GDP-bound form (human, UniProt P63096 26-354, R86A)
T4 construct: human Gαi1, residues 26-354, with R86A; site-directed mutant of the truncated Gαi1 construct; also called R86A Gαi1; not shown: His6, N-terminal, cleaved
T4 sequence (P63096 26-354 R86A): as the sequence (P63096 26-354) above, with R61A counted along it

[5] = target: T5, human truncated Gαi1 K67A single mutant, GDP-bound form (human, UniProt P63096 26-354, K67A)
T5 construct: human Gαi1, residues 26-354, with K67A; site-directed mutant of the truncated Gαi1 construct; also called K67A Gαi1; not shown: His6, N-terminal, cleaved
T5 sequence (P63096 26-354 K67A): as the sequence (P63096 26-354) above, with K42A counted along it

[6] = target: T6, human truncated Gαi1 E236Q single mutant, GDP-bound form (human, UniProt P63096 26-354, E236Q)
T6 construct: human Gαi1, residues 26-354, with E236Q; site-directed mutant of the truncated Gαi1 construct; also called E236Q Gαi1; not shown: His6, N-terminal, cleaved
T6 sequence (P63096 26-354 E236Q): as the sequence (P63096 26-354) above, with E211Q counted along it

Row | Binder | binding result [1] | binding result [2] | binding result [3] | binding result [4] | binding result [5] | binding result [6]
1 | B1 | binds |  |  |  |  | 
2 | B2 | binds |  |  |  |  | 
3 | B3 | binds | binds | binds | binds | binds | binds
